Measured values reported in patent US9957295B2, “Peptides inhibiting cold-inducible RNA binding protein activity” (The Feinstein Institute for Medical Research, priority 2013, dated 2018).

Experiments:
TLR4/MD2 complex = TLR4/MD2 complex (Homo sapiens, UniProt O00206+Q9Y6Y9); conditions: SPR, literature; read-out: KD, binding to TLR4/MD2 complex; cited from earlier work
TLR4 = TLR4 (Homo sapiens, UniProt O00206); conditions: literature; cited from earlier work
MD2 = target: T1, MD2 (Homo sapiens, UniProt Q9Y6Y9); conditions: literature; read-out: KD, binding to MD2; cited from earlier work
T1 sequence (Q9Y6Y9 19-160): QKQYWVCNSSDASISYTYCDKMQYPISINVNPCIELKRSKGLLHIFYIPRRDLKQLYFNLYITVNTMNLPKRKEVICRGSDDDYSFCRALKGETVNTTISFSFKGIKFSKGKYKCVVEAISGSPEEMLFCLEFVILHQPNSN

RAGE = target: T2, RAGE (Homo sapiens, UniProt Q15109); experiment: SPR binding to RAGE
T2 construct: Ala23-Ala344); 6-His (C); purchased Biovision; host or cells: human HEK293 cells
Method: (§1) Analysis of protein-protein and peptide-protein interactions were conducted using the BIAcore T200 instrument (GE Healthcare). Binding reactions were performed in 1×PBS buffer containing 0.01% Tween-20 (pH 7.4). The CM5 dextran chip (flow cell-2) was first activated by injection with 89 μl of 0.1 M […] and 0.1 M N-hydroxysuccinimide. An aliquot of 200 μl of 5 μg/ml of the ligand diluted in 10 mM sodium acetate (pH 4.5) was injected into flow cell-2 of the CM5 chip for immobilization. Next, 135 μl of 1 M ethanolamine (pH 8.2) was then injected to block the remaining active sites. The flow cell-1 without coating with the ligand was used as a control to evaluate nonspecific binding. […] To evaluate the binding, the analyte (ranging from 62.5 nM to 1.0 μM for kinetics analysis or 0.5 μM for yes/no binding analysis) was injected into flow cell-1 and -2 and the association of analyte and ligand was recorded respectively by surface plasmon resonance. […] Data were analyzed by the BIAcore T200 Evaluation Software. […]
(§2) Surface plasmon resonance (SPR) analysis was utilized to determine the physical interaction and binding affinity between rhCIRP and pattern-recognition receptors and MD2. […] The region of CIRP that binds to MD2 was determined via the synthesis of 32 oligopeptides (15-mer) covering the entire human CIRP sequence. […]

rhMD2 = target: T3, rhMD2 (Homo sapiens, UniProt Q9Y6Y9); experiment: SPR binding to immobilized rhMD2; conditions: kinetic analysis, 25° C., read-out: apparent KD, binding to rhMD2
T3 construct: Glu17-Asn160); 10-His (C); purchased R&D Systems; host or cells: E. coli
T3 sequence (Q9Y6Y9 17-160): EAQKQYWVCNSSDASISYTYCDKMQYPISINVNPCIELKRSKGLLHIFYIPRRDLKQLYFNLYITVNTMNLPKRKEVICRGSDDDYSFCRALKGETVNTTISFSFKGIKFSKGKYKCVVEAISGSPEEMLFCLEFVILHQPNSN
Method: Analysis of protein-protein and peptide-protein interactions were conducted using the BIAcore T200 instrument (GE Healthcare). Binding reactions were performed in 1×PBS buffer containing 0.01% Tween-20 (pH 7.4). The CM5 dextran chip (flow cell-2) was first activated by injection with 89 μl of 0.1 M […] and 0.1 M N-hydroxysuccinimide. An aliquot of 200 μl of 5 μg/ml of the ligand diluted in 10 mM sodium acetate (pH 4.5) was injected into flow cell-2 of the CM5 chip for immobilization. Next, 135 μl of 1 M ethanolamine (pH 8.2) was then injected to block the remaining active sites. The flow cell-1 without coating with the ligand was used as a control to evaluate nonspecific binding. The binding analyses were performed at flow rate of 30 μl/min at 25° C. To evaluate the binding, the analyte (ranging from 62.5 nM to 1.0 μM for kinetics analysis or 0.5 μM for yes/no binding analysis) was injected into flow cell-1 and -2 and the association of analyte and ligand was recorded respectively by surface plasmon resonance. The signal from the blank channel (flow cell-1) was subtracted from the channel (flow-cell 2) coated with the ligand. Data were analyzed by the BIAcore T200 Evaluation Software. For all samples, a blank injection with buffer alone was subtracted from the resulting reaction surface data. Data were globally fitted to the Lagmuir model for a 1:1 binding.
Surface plasmon resonance (SPR) analysis was utilized to determine the physical interaction and binding affinity between rhCIRP and pattern-recognition receptors and MD2. […] The sensorgrams show association and dissociation of analyte at the indicated concentration passed over to the immobilized ligand on the sensor chip, indicated as analyte/ligand on top of each diagram. […] The region of CIRP that binds to MD2 was determined via the synthesis of 32 oligopeptides (15-mer) covering the entire human CIRP sequence. The oligopeptides were passed over immobilized rhMD2 on the BIAcore instrument, followed by subsequent performance of a series of SPR analyses. Three oligopeptides with high binding affinity were indicated. […] Three oligopeptides, aa 101-115, 106-120 (C22), and 111-125 (C23) bound to rhMD2 with high affinity (FIG. 14 and FIG. 19).

THP-1 cells = experiment: TNF-α release from differentiated THP-1 cells stimulated with recombinant proteins; assay type: cell-based, human; conditions: 4 h
Method: As with the murine model, the stimulation of TNF-α, release by rCIRP in a human model was studied. […] These experiments were conducted by incubating differentiated human THP-1 cells with rhCIRP or rmCIRP at the indicated concentrations for 4 h. *P<0.05 vs. no CIRP. Similarly, human PBMC were incubated with the indicated concentrations of rhCIRP for 8 h. *P<0.05 vs. no rhCIRP. Thus, stimulation of cytokine release by CIRP was not attributable to LPS contamination. Furthermore, CIRP-induced cytokine activation was conserved between rodents and humans.
rmCIRP induced TNF-α and HMGB1 release in macrophages (FIGS. 10a, b and c). It was reported that HMGB1 can also stimulate TNF-α release (Andersson, U., et al. High mobility group 1 protein (HMG-1) stimulates proinflammatory cytokine synthesis in human monocytes. J. Exp. Med. 192, 565-570 (2000)). The relationship between CIRP and HMGB1 on stimulating TNF-α release was analyzed by applying respective neutralizing antibodies. […] After 4 h, TNF-α levels in conditioned medium (CM) were assayed by ELISA. Data are mean±s.e.m. from three independent experiments. *P<0.05 vs. rmCIRP+ control IgG. In FIG. 16D, RAW 264.7 cells were pre-incubated with rabbit control IgG or anti-CIRP antibodies at indicated dilutions of 1 mg/ml for 20 min before adding 1.0 μg/ml rmCIRP. After 4 h, TNF-α levels in CM were assayed by ELISA. Data are mean±s.e.m. from three independent experiments. *P<0.05 vs. rmCIRP+ control IgG. THP-1 cells were incubated with 4 μg/ml of anti-CIRP antibodies, anti-HMGB1 antibodies, or non-immunized control IgG for 1 h prior to adding rmCIRP (0.3 μg/ml), rmHMGB1 (0.3 μg/ml), or rmCIRP/rmHMGB1 (0.3 μg/ml, 0.3 μg/ml) for 8 h. *P<0.05 vs. rmCIRP; #P<0.05 vs. rmHMGB1. […] Furthermore, rmCIRP, rmHMGB1, and rmCIRP plus rmHMGB1 induced TNF-α levels of 0.8, 0.6, and 1.6 ng/ml, respectively. […] TNF-α levels in all collected CM were assayed by ELISA. Data are mean±s.e.m. from three or four independent experiments.
Murine macrophage-like RAW 264.7 cells and human monocyte THP-1 cells were obtained from ATCC (Manassas, Va.). […]

TLR2 = target: T4, TLR2 (Homo sapiens, UniProt O60603); experiment: SPR binding to TLR2
T4 construct: Glu21-Leu590); 10-His (C); purchased R&D Systems; host or cells: mouse myeloma NS0 cell line
Method: as §1, §2

T2 sequence (Q15109 23-344): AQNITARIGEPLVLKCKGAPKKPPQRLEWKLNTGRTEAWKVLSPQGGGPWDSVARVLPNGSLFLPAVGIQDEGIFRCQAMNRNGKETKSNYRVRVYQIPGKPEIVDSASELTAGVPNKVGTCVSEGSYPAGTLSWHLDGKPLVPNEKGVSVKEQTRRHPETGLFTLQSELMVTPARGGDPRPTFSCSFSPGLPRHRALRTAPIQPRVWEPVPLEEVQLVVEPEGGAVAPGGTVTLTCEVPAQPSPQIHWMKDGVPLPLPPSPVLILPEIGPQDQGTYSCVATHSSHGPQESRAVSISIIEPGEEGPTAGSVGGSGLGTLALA
T4 sequence (O60603 21-590): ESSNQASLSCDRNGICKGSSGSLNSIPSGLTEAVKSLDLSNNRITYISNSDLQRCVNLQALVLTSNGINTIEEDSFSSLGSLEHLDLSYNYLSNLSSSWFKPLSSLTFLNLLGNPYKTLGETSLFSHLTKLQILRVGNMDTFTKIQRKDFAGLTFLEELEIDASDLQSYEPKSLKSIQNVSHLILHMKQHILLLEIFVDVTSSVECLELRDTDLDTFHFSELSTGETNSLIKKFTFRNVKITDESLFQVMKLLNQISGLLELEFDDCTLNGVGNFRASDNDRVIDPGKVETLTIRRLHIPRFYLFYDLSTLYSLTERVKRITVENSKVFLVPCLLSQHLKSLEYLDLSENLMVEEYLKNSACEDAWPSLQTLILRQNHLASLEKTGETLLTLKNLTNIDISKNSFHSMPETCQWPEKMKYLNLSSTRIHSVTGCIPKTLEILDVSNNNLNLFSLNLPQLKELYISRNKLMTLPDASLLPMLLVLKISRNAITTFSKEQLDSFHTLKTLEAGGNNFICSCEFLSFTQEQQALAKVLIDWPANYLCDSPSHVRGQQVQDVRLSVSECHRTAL
Sequence of TLR4 (O00206 24-631 limits assumed, species assumed): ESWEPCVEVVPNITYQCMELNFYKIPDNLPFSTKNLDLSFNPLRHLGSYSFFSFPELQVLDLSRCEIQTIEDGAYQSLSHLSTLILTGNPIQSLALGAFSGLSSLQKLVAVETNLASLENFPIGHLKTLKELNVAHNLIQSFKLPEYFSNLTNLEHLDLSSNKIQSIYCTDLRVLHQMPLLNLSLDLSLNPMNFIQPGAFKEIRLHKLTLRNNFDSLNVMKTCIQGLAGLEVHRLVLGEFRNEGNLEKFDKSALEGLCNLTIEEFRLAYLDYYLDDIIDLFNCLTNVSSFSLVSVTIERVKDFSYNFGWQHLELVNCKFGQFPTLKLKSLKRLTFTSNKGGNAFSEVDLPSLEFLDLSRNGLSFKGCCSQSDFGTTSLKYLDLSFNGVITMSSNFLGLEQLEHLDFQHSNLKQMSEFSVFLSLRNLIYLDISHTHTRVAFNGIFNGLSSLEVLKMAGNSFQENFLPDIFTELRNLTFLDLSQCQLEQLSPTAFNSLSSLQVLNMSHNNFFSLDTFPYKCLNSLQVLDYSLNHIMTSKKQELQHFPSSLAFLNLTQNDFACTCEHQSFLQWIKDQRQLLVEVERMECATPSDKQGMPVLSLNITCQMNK
Sequence of TLR4/MD2 complex (O00206 24-631 limits assumed, one chain of several): as the sequence (O00206 24-631 limits assumed, species assumed) above

HMGB1: high mobility group box 1 protein, proinflammatory cytokine; literature binding data
Kd (TLR4/MD2 complex): 1500 nM
binding to TLR4 (in words) (TLR4): did not bind to TLR4
Kd (MD2): 8 nM

B1: rhCIRP: recombinant human CIRP, full length, C-terminal DDK tag, from HEK293 cells (Origene) (protein)
chain: MASDEGKLFVGGLSFDTNEQSLEQVFSKYGQISEVVVVKDRETQRSRGFGFVTFENIDDAKDAMMAMNGKSVDGRQIRVDQAGKSSDNRSRGYRGGSAGGRGFFRGGRGRGRGFSRGGGDRGYGGNRFESRSGGYGGSRDYYSSRSQSGGYSDRSSGGSYRDSYDSYATHNE
modifications: left off: small tags and cut ends
KD with RAGE (RAGE): in the nM range
Kd (rhMD2): 302 nM
activity in stimulating TNF-α release from differentiated THP-1 cells (THP-1 cells): comparable activity to rmCIRP
KD with TLR2 (TLR2): in the nM range
